Molecular target: recombinant wild-type human alpha-synuclein

B1: MET (protein)
chain: KKRKQIKDLGSELVRYDARVHTPHLDRLVSARSVSPTTEMVSNESVDYRATFPEDQFPNSSQNGSCRQVQYPLTDMSPILTSGDSDISSPLLQNTVHIDLSALNPELVQAVQHVVIGPSSLIVHFNEVIGRGHFGCVYHGTLLDNDGKKIHCAVKSLNRITDIGEVSQFLTEGIIMKDFSHPNVLSLLGICLRSEGSPLVVLPYMKHGDLRNFIRNETHNPTVKDLIGFGLQVAKGMKYLASKKFVHRDLAARNCMLDEKFTVKVADFGLARDMYDKEYYSVHNKTGAKLPVKWMALESLQTQKFTTKSDVWSFGVLLWELMTRGAPPYPDVNTFDITVYLLQGRRLLQPEYCPDPLYEVMLKCWHPKAEMRPSFSELVSRISAIFSTFIGEHYVHVNATYVNVKCVAPYPSLLSSEDNADDEVDTRPASFWETS
  in vitro kinase reaction, phosphorylation of alpha-synuclein: shown to be incapable of directly phosphorylating alpha-synuclein

B2: IKBKB (protein)
chain: MSWSPSLTTQTCGAWEMKERLGTGGFGNVIRWHNQETGEQIAIKQCRQELSPRNRERWCLEIQIMRRLTHPNVVAARDVPEGMQNLAPNDLPLLAMEYCQGGDLRKYLNQFENCCGLREGAILTLLSDIASALRYLHENRIIHRDLKPENIVLQQGEQRLIHKIIDLGYAKELDQGSLCTSFVGTLQYLAPELLEQQKYTVTVDYWSFGTLAFECITGFRPFLPNWQPVQWHSKVRQKSEVDIVVSEDLNGTVKFSSSLPYPNNLNSVLAERLEKWLQLMLMWHPRQRGTDPTYGPNGCFKALDDILNLKLVHILNMVTGTIHTYPVTEDESLQSLKARIQQDTGIPEEDQELLQEAGLALIPDKPATQCISDGKLNEGHTLDMDLVFLFDNSKITYETQISPRPQPESVSCILQEPKRNLAFFQLRKVWGQVWHSIQTLKEDCNRLQQGQRAAMMNLLRNNSCLSKMKNSMASMSQQLKAKLDFFKTSIQIDLEKYSEQTEFGITSDKLLLAWREMEQAVELCGRENEVKLLVERMMALQTDIVDLQRSPMGRKQGGTLDDLEEQARELYRRLREKPRDQRTEGDSQEMVRLLLQAIQSFEKKVRVIYTQLSKTVVCKQKALELLPKVEEVVSLMNEDEKTVVRLQEKRQKELWNLLKIACSKVRGPVSGSPDSMNASRLSQPGQLMSQPSTASNSLPEPAKKSEELVAEAHNLCTLLENAIQDTVREQDQSFTALDWSWLQTEEEEHSCLEQAS
  in vitro kinase reaction, phosphorylation of alpha-synuclein: shown to be incapable of directly phosphorylating alpha-synuclein

B3: GRK7 (protein)
chain: MVDMGALDNLIANTAYLQARKPSDCDSKELQRRRRSLALPGLQGCAELRQKLSLNFHSLCEQQPIGRRLFRDFLATVPTFRKAATFLEDVQNWELAEEGPTKDSALQGLVATCASAPAPGNPQPFLSQAVATKCQAATTEEERVAAVTLAKAEAMAFLQEQPFKDFVTSAFYDKFLQWKLFEMQPVSDKYFTEFRVLGKGGFGEVCAVQVKNTGKMYACKKLDKKRLKKKGGEKMALLEKEILEKVSSPFIVSLAYAFESKTHLCLVMSLMNGGDLKFHIYNVGTRGLDMSRVIFYSAQIACGMLHLHELGIVYRDMKPENVLLDDLGNCRLSDLGLAVEMKGGKPITQRAGTNGYMAPEILMEKVSYSYPVDWFAMGCSIYEMVAGRTPFKDYKEKVSKEDLKQRTLQDEVKFQHDNFTEEAKDICRLFLAKKPEQRLGSREKSDDPRKHHFFKTINFPRLEAGLIEPPFVPDPSVVYAKDIAEIDDFSEVRGVEFDDKDKQFFKNFATGAVPIAWQEEIIETGLFEELNDPNRPTGCEEGNSSKSGVCLLL
  S129 phosphorylation, immunoblot (11A5): Prominent signals came from all GRKs except for GRK7
  in vitro kinase reaction, phosphorylation of alpha-synuclein at serine 129: capable of phosphorylating alpha-synuclein specifically at serine 129 and did not phosphorylate serine 87 in vitro
  phosphorylation of AS in vitro: GRK 7 was not able to phosphorylate at appreciable levels

B4: CDC7 cell division cycle 7-like 1 (CDC7L1) (protein)
chain: MEASLGIQMDEPMAFSPQRDRFQAEGSLKKNEQNFKLAGVKKDIEKLYEAVPQLSNVFKIEDKIGEGTFSSVYLATAQLQVGPEEKIALKHLIPTSHPIRIAAELQCLTVAGGQDNVMGVKYCFRKNDHVVIAMPYLEHESFLDILNSLSFQEVREYMLNLFKALKRIHQFGIVHRDVKPSNFLYNRRLKKYALVDFGLAQGTHDTKIELLKFVQSEAQQERCSQNKSHIITGNKIPLSGPVPKELDQQSTTKASVKRPYTNAQIQIKQGKDGKEGSVGLSVQRSVFGERNFNIHSSISHESPAVKLMKQSKTVDVLSRKLATKKKAISTKVMNSAVMRKTASSCPASLTCDCYATDKVCSICLSRRQQVAPRAGTPGFRAPEVLTKCPNQTTAIDMWSAGVIFLSLLSGRYPFYKASDDLTALAQIMTIRGSRETIQAAKTFGKSILCSKEVPAQDLRKLCERLRGMDSSTPKLTSDIQGHASHQPAISEKTDHKASCLVQTPPGQYSGNSFKKGDSNSCEHCFDEYNTNLEGWNEVPDEAYDLLDKLLDLNPASRITAEEALLHPFFKDMSL
  in vitro kinase reaction, phosphorylation of alpha-synuclein: shown to be incapable of directly phosphorylating alpha-synuclein

B5: PLK4 (protein)
chain: MATCIGEKIEDFKVGNLLGKGSFAGVYRAESIHTGLEVAIKMIDKKAMYKAGMVQRVQNEVKIHCQLKHPSILELYNYFEDSNYVYLVLEMCHNGEMNRYLKNRVKPFSENEARHFMHQIITGMLYLHSHGILHRDLTLSNLLLTRNMNIKIADFGLATQLKMPHEKHYTLCGTPNYISPEIATRSAHGLESDVWSLGCMFYTLLIGRPPFDTDTVKNTLNKVVLADYEMPSFLSIEAKDLIHQLLRRNPADRLSLSSVLDHPFMSRNSSTKSKDLGTVEDSIDSGHATISTAITASSSTSISGSLFDKRRLLIGQPLPNKMTVFPKNKSSTDFSSSGDGNSFYTQWGNQETSNSGRGRVIQDAEERPHSRYLRRAYSSDRSGTSNSQSQAKTYTMERCHSAEMLSVSKRSGGGENEERYSPTDNNANIFNFFKEKTSSSSGSFERPDNNQALSNHLCPGKTPFPFADPTPQTETVQQWFGNLQINAHLRKTTEYDSISPNRDFQGHPDLQKDTSKNAWTDTKVKKNSDASDNAHSVKQQNTMKYMTALHSKPEIIQQECVFGSDPLSEQSKTRGMEPPWGYQNRTLRSITSPLVAHRLKPIRQKTKKAVVSILDSEEVCVELVKEYASQEYVKEVLQISSDGNTITIYYPNGGRGFPLADRPPSPTDNISRYSFDNLPEKYWRKYQYASRFVQLVRSKSPKITYFTRYAKCILMENSPGADFEVWFYDGVKIHKTEDFIQVIEKTGKSYTLKSESEVNSLKEEIKMYMDHANEGHRICLALESIISEEERKTRSAPFFPIIIGRKPGSTSSPKALSPPPSVDSNYPTRERASFNRMVMHSAASPTQAPILNPSMVTNEGLGLTTTASGTDISSNSLKDCLPKSAQLLKSVFVKNVGWATQLTSGAVWVQFNDGSQLVVQAGVSSISYTSPNGQTTRYGENEKLPDYIKQKLQCLSSILLMFSNPTPNFH
  Fold Change in Percent Synuclein Phosphorylation, HEK-293 overexpression: 1 fold
  Proportion of total synuclein that is phoshorylated at ser-129, HEK-293 overexpression, ELISA: 1.9%
  in vitro biochemical assay, phosphorylation of synuclein: PLK4 exhibiting no ability to phosphorylate synuclein

B6: PLK3 (protein)
chain: MEPAAGFLSPRPFQRAAAAPAPPAGPGPPPSALRGPELEMLAGLPTSDPGRLITDPRSGRTYLKGRLLGKGGFARCYEATDTETGSAYAVKVIPQSRVAKPHQREKILNEIELHRDLQHRHIVRFSHHFEDADNIYIFLELCSRKSLAHIWKARHTLLEPEVRYYLRQILSGLKYLHQRGILHRDLKLGNFFITENMELKVGDFGLAARLEPPEQRKKTICGTPNYVAPEVLLRQGHGPEADVWSLGCVMYTLLCGSPPFETADLKETYRCIKQVHYTLPASLSLPARQLLAAILRASPRDRPSIDQILRHDFFTKGYTPDRLPISSCVTVPDLTPPNPARSLFAKVTKSLFGRKKKSKNHAQERDEVSGLVSGLMRTSVGHQDARPEAPAASGPAPVSLVETAPEDSSPRGTLASSGDGFEEGLTVATVVESALCALRNCIAFMPPAEQNPAPLAQPEPLVWVSKWVDYSNKFGFGYQLSSRRVAVLFNDGTHMALSANRKTVHYNPTSTKHFSFSVGAVPRALQPQLGILRYFASYMEQHLMKGGDLPSVEEVEVPAPPLLLQWVKTDQALLMLFSDGTVQVNFYGDHTKLILSGWEPLLVTFVARNRSACTYLASHLRQLGCSPDLRQRLRYALRLLRDRSPA
  Fold Change in Percent Synuclein Phosphorylation, HEK-293 overexpression: 39.6 fold
  Proportion of total synuclein that is phoshorylated at ser-129, HEK-293 overexpression, ELISA: 79.2%
  in vitro biochemical assay, phosphorylation of synuclein: PLK2 and PLK3 having extremely robust phosphorylation of synuclein

Source: patent US20080300206
